Positions count from the first letter of the chain named.
T1: ATF1 (Homo sapiens, UniProt P18846)
T1 sequence: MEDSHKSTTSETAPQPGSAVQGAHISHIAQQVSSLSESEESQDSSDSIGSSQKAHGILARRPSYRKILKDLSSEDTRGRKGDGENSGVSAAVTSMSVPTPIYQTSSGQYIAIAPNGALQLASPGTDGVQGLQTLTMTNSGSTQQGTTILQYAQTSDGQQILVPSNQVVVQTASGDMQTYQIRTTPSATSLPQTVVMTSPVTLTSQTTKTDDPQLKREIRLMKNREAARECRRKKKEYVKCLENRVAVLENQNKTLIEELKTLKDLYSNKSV

B1: oligo 1 (CRE) (dsDNA)
DNA 1: GGCCACTACCGCTTCCTCCACATGACGTCATGGTTTTCTCCACCAAGGAAGT
DNA 2: ACTTCCTTGGTGGAGAAAACCATGACGTCATGTGGAGGAAGCGGTAGTGGCC
B2: oligo 2 (CRE) (dsDNA)
DNA 1: TTATGACCTGGGAGTGACGTCATGGAATCCACAGA
DNA 2: TCTGTGGATTCCATGACGTCACTCCCAGGTCATAA
B3: oligo 3 (AP-1) (dsDNA)
DNA 1: GGCCACTACCGCTTCCTCCACATGAGTCATGGTTTTCTCCACCAAGGAAGT
DNA 2: ACTTCCTTGGTGGAGAAAACCATGACTCATGTGGAGGAAGCGGTAGTGGCC
B4: oligo 4 (AP-1) (dsDNA)
DNA 1: B2 DNA 1 with C18G, G19T, T20C, C21A
DNA 2: B2 DNA 2 with G15T, A16G, C17A, G18C
B5: oligo 5 (HS) (dsDNA)
DNA 1: B1 DNA 1 with A25G
DNA 2: B1 DNA 2 with T28C
B6: oligo 6 (HS) (dsDNA)
DNA 1: TTATCCACTTGCGCTCGCCGAGTGGCGTCACCAGCGGTACTGTAATGACGAT
DNA 2: ATCGTCATTACAGTACCGCTGGTGACGCCACTCGGCGAGCGCAAGTGGATAA
B7: oligo 7 (Mutant) (dsDNA)
DNA 1: GGCCACTACCGCTTCCTCCACAAATAAAATTGGTTTTCTCCACCAAGGAAGT
DNA 2: ACTTCCTTGGTGGAGAAAACCAATTTTATTTGTGGAGGAAGCGGTAGTGGCC

Columns and labels:
c-Jun;c-Fos (;) = c-Jun;c-Fos (;) (UniProt P05412+P01100); test: MITOMI (QPID); details: QPID microfluidic MITOMI; 1 h incubation of in vitro expressed extract (about 25 ul, 50 ng protein) with spotted Cy5-dsDNA (0.0156-2 uM spotting dilutions, PEG …)
c-Jun [1] = molecular target: c-Jun (UniProt P05412); test: MITOMI (QPID); details: QPID microfluidic MITOMI; 1 h incubation of in vitro expressed extract (about 25 ul, 50 ng protein) with spotted Cy5-dsDNA (0.0156-2 uM spotting dilutions, PEG …)
c-Fos = c-Fos (Homo sapiens, UniProt P01100); test: MITOMI-type chip (QPID); rabbit reticulocyte lysate, 1 h; wash 50 mM HEPES; temperature not stated; DNA spotted at 0.0156-2 uM; details: tags: N-cMyc, C-His6 (kept); label: Cy5 on the primer strand
ATF1 = molecular target: T1, ATF1; test: as above; details: tags: N-cMyc, C-His6 (kept); chain copies: 2; label: Cy5 on the primer strand
c-Fos/c-Jun = c-Fos/c-Jun (Homo sapiens, UniProt P01100;P05412 full;full); test: as above; details: tags: c-Fos N-cMyc, C-His6; c-Jun HA and V5 at the termini (kept); copies: 1;1; label: Cy5 on the primer strand
c-Jun [2] = molecular target: c-Jun (Homo sapiens, UniProt P05412); test: as above; details: tags: N-cMyc, C-His6 (kept); chain copies: 2; label: Cy5 on the primer strand
Chain of c-Jun (Homo sapiens, UniProt P05412) (P05412 whole entry): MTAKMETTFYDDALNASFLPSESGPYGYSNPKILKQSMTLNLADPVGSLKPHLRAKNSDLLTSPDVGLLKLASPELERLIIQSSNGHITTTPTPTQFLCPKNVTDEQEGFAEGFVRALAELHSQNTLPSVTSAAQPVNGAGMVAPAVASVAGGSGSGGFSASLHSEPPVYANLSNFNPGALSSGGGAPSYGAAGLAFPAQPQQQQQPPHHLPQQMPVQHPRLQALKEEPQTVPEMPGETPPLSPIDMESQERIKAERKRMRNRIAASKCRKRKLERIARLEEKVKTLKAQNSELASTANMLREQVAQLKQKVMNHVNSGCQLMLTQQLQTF

Chain of c-Fos/c-Jun (P01100 whole entry, chain 1 of 2): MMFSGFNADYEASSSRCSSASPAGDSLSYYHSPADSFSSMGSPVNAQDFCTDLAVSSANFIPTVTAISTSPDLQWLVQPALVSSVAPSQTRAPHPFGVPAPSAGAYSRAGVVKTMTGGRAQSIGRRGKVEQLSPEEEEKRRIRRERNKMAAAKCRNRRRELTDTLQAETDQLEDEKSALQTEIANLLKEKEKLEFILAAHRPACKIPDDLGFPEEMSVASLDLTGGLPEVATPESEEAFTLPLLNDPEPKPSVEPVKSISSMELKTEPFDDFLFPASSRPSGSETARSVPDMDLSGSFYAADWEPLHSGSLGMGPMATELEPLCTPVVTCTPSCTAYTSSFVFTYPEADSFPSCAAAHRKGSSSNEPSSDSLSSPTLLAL
Chain of c-Fos/c-Jun (P05412 whole entry, chain 2 of 2): as the sequence (P05412 whole entry) above
Chain of c-Fos (P01100 whole entry): as the sequence (P01100 whole entry, chain 1 of 2) above
Chain of c-Jun;c-Fos (;) (P05412 252-315, chain 1 of 2): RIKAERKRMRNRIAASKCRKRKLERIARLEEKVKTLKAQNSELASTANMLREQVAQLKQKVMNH
Chain of c-Jun;c-Fos (;) (P01100 137-200, chain 2 of 2): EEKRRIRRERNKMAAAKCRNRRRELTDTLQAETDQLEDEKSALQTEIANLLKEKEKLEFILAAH
Chain of c-Jun (UniProt P05412) (P05412 252-315): as the sequence (P05412 252-315, chain 1 of 2) above

| Molecule | Kd (c-Jun;c-Fos (;)) [nM] | Kd (c-Jun [1]) [nM] | Kd (c-Fos) [nM] | Kd (ATF1) [nM] | Kd (c-Fos/c-Jun) [nM] | Kd (c-Jun [2]) [nM] |
| --- | --- | --- | --- | --- | --- | --- |
| GGCCACTACCGCTTCCTCCACATGGCGTCATGGTTTTCTCCACCAAGGAAGT (double strand) [oligo 5 (CRE half-site)] | 3500 |  |  |  |  |  |
| TTATGACCTGGGAGTGACGTCATGGAATCCACAGA (double strand) [oligo 2 (CRE)] | 150 | 2400 |  |  |  |  |
| TTATGACCTGGGAGTGAGTCAATGGAATCCACAGA (double strand) [oligo 4 (AP-1)] | 500 |  |  |  |  |  |
| TTATCCACTTGCGCTCGCCGAGTGGCGTCACCAGCGGTACTGTAATGACGAT (double strand) [oligo 6 (CRE half-site)] | 4000 |  |  |  |  |  |
| GGCCACTACCGCTTCCTCCACATGACGTCATGGTTTTCTCCACCAAGGAAGT (double strand) [oligo 1 (CRE)] | 190 | 1300 |  |  |  |  |
| GGCCACTACCGCTTCCTCCACATGAGTCATGGTTTTCTCCACCAAGGAAGT (double strand) [oligo 3 (AP-1)] | 270 | 2500 |  |  |  |  |
| B1 |  |  | > 2000 | 40 | 190 | 1300 |
| B2 |  |  | > 2000 | 30 | 150 | ~2400 |
| B3 |  |  | > 2000 | ~11000 | 270 | ~2500 |
| B4 |  |  | > 2000 | ~17000 | 500 |  |
| B5 |  |  | > 2000 | 170 | ~3500 |  |
| B6 |  |  | > 2000 | 40 | ~4000 |  |
| B7 |  |  | > 2000 | > 2000 |  |  |
